We go through four molecules from US10450368 (DUKE UNIVERSITY, dated 2019).

To fix the notation:
B1: CH557 (antibody, V domains shown)
VH: QVRLAQYGGGVKRLGATMTLSCVASGYTFNDYYIHWVRQAPGQGFELLGYIDPANGRPDYAGALRERLSFYRDKSMETLYMDLRSLRYDDTAMYYCVRNVGTAGSLLHYDHWGSGSPVIVSS
VL: EIVLTQSPATLSASPGERVTLTCRASRSVRNNVAWYQHKGGQSPRLLIYDASTRAAGVPARFSGSASGTEFTLAISNLESEDFTVYFCLQYNNWWTFGQGTRVDIK
notes: also called CH235.12; CH557_4A/293i
B2: CH235 (antibody, V domains shown)
VH: QVQLVQSGAEVKKPGASVTVSCQASGYTFTNYYVHWVRQAPGQGLQLMGWIDPSWGRTNYAQNFQGRITMTRDTSTSTVYMEMRSLRSEDTAVYYCARNVATEGSLLHYDYWGQGTLVTVSA
VL: EIVLTQSPATLSVSPGERATLSCRASQSVRSNLAWYQQRPGQAPRLLIYGTSTRATGVPARFSGRGSGTEFTLAISSMQSEDFAVYLCLQYNNWWTFGQGTKVEIK
notes: also called CH235_4A
B3: CH241 (antibody, V domains shown)
VH: QVQLVQSGAAVKKPGASVRVSCKASGYTFTSSHIHWVRQAPGQGPEWMGMIDPSVGRPTTAGKFQGRVTMTRDRYTSTAYMDLSSLRSEDTAVYYCARSVETTGSLLYFDYWGQGTLITVSS
VL: EIVLTQSPATLSVSPGERATLSCRASQSVRSNIAWYQQKPGQAPRLLIHGASTRATGIPGRFSGSGSGPEFTLAISSVQSEDFAVYYCQQYNDWWTFGQGTKVEIK
B4: CH493 (antibody, V domains shown)
VH: QVRLLQYGGGVKRPGASMTISCVASGYNFNDYYIHWVRQAPGQGLELMGWIDPSGGRTDYAGAFGDRVSMYRDKSMNTLYMDLRSLRSGDTAMYYCVRNVGTAGSLLHYDHWGLGVMVTVSS
VL: EIVLTQSPATLSVSPGERVTLSCRASQSVRNNLAWYRQKRGQAPRLLIYGASTRATGIPARFSGSGSGTEFTLTISSMQSEDFAVYYCQQYNNWWTFGQGTKVEIK
notes: also called CH235.9; DH493

The first experiment deals with CH0505_CON D7gp120/293i. Briefly: ELISA.
For the molecule B1, the LogAUC amounted to 8.39.

The molecule B2 showed a LogAUC of 9.73.

Molecule B3 yielded a LogAUC of 13.3.

The molecule B4 returned a LogAUC of 8.67.

In another experiment the target is T1, CH505w020.14D8gp120.
T1 construct: also called CH505w20.14 gp120
Briefly: ELISA. (ELISA stands for enzyme-linked immunosorbent assay.)
In the case of B1, the LogAUC was found to be 8.33.

B2 had a LogAUC of 9.91.

Regarding B3, the LogAUC amounted to 13.1.

B4 displayed a LogAUC of 8.15.

Another experiment deals with T2, CH505w030.20D8gp120/293F.
T2 construct: also called CH505w30.20 gp120
Briefly: ELISA.
In the case of B1, the LogAUC was determined as 8.59.

B2 returned a LogAUC of 8.33.

In turn, B3 registered a LogAUC of 8.03.

Turning to B4, the LogAUC is 8.09.

Another experiment deals with T3, CH505.w30.12D8gp120.
T3 construct: also called CH505w30.12 gp120
Briefly: ELISA.
B1 showed a LogAUC of 2.37.

As to B2, the LogAUC came out at 7.28.

Molecule B3 had a LogAUC of 9.6.

B4 gave a LogAUC of 3.17.

The next experiment deals with CH505w136.B18D8gp120. Briefly: ELISA.
B1: the LogAUC turned out to be 8.31.

Molecule B2 gave a LogAUC of 7.53.

With B3, the LogAUC is 0.89.

Turning to B4, the LogAUC turned out to be 5.76.

The target of a further experiment is CH505.M5D8gp120293F. Briefly: ELISA.
With B1, the LogAUC was 8.2.

Take B2: the LogAUC turned out to be 11.4.

The molecule B3 came in with a LogAUC of 14.5.

As to B4, the LogAUC came to 9.26.

The target in the next experiment is CH505.M10D8gp120. Briefly: ELISA.
On to B1, for which the LogAUC was found to be 7.63.

For B2, the LogAUC came out at 10.6.

For the molecule B3, the LogAUC is 14.4.

Take B4: the LogAUC came out at 10.2.

In the next experiment the target is CH505.M11D8gp120/293F. Briefly: ELISA.
B1 had a LogAUC of 7.71.

For the molecule B2, the LogAUC was 7.59.

Turning to B3, the LogAUC was found to be 9.68.

On to B4, for which the LogAUC was determined as 8.26.

A further experiment concerns the target CH505.M19D8gp120. Briefly: ELISA.
The molecule B1 returned a LogAUC of 4.61.

In the case of B2, the LogAUC stood at 7.13.

Molecule B3 registered a LogAUC of 10.4.

As to B4, the LogAUC turned out to be 5.95.

In another experiment the target is CH505.M21D8gp120/293F. Briefly: ELISA.
In turn, B1 showed a LogAUC of 0.19.

The molecule B2 came in with a LogAUC of 0.

B3 came in with a LogAUC of 4.82.

Consider B4, for which the LogAUC stood at 1.13.

A further experiment has as its target CH505.M9D8gp120/293F. Briefly: ELISA.
For B1, the LogAUC amounted to 0.38.

With B2, the LogAUC was found to be 0.

As to B3, the LogAUC amounted to 0.

In turn, B4 showed a LogAUC of 1.31.

Another experiment has as its target CH505.M7D8gp120/293F. Briefly: ELISA.
In turn, B1 yielded a LogAUC of 0.69.

In turn, B2 gave a LogAUC of 0.

In turn, B3 gave a LogAUC of 0.

B4 came in with a LogAUC of 0.8.

Another experiment addresses T4, CH505.TF mutant gp120 M6 (HIV-1).
T4 construct: domain: gp120
Briefly: ELISA.
B1 yielded a LogAUC of 8.21.

Consider B2, for which the LogAUC was found to be 9.46.

For the molecule B3, the LogAUC turned out to be 13.2.

In the case of B4, the LogAUC turned out to be 8.11.

In a further experiment the target is T5, CH505.TF mutant gp120 M8 (HIV-1).
T5 construct: domain: gp120
Briefly: ELISA.
As to B1, the LogAUC is 1.14.

For B2, the LogAUC is 0.

In turn, B3 showed a LogAUC of 2.18.

The molecule B4 had a LogAUC of 4.36.

Another experiment has as its target T6, CH505.TF mutant gp120 M20 (HIV-1).
T6 construct: domain: gp120
Briefly: ELISA.
B1 showed a LogAUC of 0.

Take B2: the LogAUC stood at 0.

Molecule B3 had a LogAUC of 2.15.

In turn, B4 registered a LogAUC of 1.04.

For the next experiment, the target named is T7, SSA.
T7 construct: also called SSA (Ro)
Briefly: AtheNA, Ab 12.5 ug/ml.
Consider B2, for which the AtheNA signal was 13 relative luminescence units.

Regarding B3, the AtheNA signal was 14 relative luminescence units.

A further experiment concerns the target T8, SSB (UniProt P05455 1-408).
T8 sequence: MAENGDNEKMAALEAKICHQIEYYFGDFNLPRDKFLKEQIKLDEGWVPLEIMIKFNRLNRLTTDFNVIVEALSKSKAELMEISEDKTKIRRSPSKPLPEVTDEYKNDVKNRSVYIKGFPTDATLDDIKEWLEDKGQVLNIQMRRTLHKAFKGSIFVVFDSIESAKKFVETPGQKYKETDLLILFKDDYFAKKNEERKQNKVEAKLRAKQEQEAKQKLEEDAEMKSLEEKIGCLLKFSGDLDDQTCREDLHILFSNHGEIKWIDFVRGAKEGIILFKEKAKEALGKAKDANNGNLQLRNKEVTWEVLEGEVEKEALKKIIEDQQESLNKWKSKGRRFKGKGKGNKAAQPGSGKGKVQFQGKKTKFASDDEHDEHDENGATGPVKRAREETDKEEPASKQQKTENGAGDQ
Briefly: AtheNA, Ab 12.5 ug/ml.
Take B2: the AtheNA signal was 5 relative luminescence units.

In the case of B3, the AtheNA signal is 8 relative luminescence units.

The target in a further experiment is T9, Sm (Smith antigen).
T9 construct: Protein complex
Briefly: AtheNA, Ab 12.5 ug/ml.
As for B2, the AtheNA signal was 8 relative luminescence units.

For B3, the AtheNA signal was 7 relative luminescence units.

The next experiment deals with T10, Jo-1 (UniProt P12081 1-509).
T10 sequence: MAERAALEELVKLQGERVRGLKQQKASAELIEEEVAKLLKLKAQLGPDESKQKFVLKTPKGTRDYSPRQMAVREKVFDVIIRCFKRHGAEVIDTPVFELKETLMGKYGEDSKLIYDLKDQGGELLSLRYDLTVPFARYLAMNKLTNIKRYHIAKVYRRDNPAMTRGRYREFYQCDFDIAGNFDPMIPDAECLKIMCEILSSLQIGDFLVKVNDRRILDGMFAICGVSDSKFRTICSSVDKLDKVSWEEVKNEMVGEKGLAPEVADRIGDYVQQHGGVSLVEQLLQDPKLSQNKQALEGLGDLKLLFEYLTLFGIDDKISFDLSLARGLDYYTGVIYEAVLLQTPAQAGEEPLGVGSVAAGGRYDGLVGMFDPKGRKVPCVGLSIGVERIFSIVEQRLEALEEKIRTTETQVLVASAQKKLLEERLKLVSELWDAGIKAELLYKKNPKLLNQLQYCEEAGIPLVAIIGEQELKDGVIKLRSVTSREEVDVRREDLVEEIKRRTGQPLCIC
Briefly: AtheNA, Ab 12.5 ug/ml.
For B2, the AtheNA signal was 3 relative luminescence units.

For the molecule B3, the AtheNA signal was 6 relative luminescence units.

In a further experiment the target is T8, SSB. Briefly: ELISA, LogAUC grade.
Turning to B1, the binding result is listed as “no binding”.

B2: the binding result was “no binding”.

For the molecule B3, the binding result was “no binding”.

In another experiment the target is T11, Scl-70 (UniProt P11387 1-765).
T11 sequence: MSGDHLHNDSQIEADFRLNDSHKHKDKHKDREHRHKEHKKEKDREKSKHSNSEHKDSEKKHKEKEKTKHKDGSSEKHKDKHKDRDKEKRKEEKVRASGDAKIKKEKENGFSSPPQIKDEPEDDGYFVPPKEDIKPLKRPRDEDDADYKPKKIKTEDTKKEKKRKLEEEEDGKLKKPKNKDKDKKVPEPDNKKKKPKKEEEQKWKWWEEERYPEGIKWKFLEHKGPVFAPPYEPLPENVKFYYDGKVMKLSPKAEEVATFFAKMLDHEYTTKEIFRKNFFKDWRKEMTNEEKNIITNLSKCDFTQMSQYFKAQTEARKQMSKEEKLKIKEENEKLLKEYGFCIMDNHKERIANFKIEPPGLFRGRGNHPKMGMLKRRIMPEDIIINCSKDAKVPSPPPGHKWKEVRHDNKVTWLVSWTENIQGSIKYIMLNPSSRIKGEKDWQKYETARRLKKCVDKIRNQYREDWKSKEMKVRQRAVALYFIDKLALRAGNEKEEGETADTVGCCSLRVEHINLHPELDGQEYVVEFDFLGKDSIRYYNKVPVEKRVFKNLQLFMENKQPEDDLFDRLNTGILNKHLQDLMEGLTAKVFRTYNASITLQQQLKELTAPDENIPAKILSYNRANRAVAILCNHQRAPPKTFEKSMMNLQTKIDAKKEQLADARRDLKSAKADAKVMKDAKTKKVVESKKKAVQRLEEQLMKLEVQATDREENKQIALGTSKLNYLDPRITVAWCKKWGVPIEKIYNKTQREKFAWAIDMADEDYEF
Briefly: ELISA, LogAUC grade.
Turning to B1, the binding result is reported as “no binding”.

As to B2, the binding result is “no binding”.

For the molecule B3, the binding result is “no binding”.

For the next experiment, the target named is T10, Jo-1. Briefly: ELISA, LogAUC grade.
For B1, the binding result is “no binding”.

With B2, the binding result is on record as “no binding”.

As for B3, the binding result was “no binding”.
